B1: LEDGF IBD fused to Gal4 transcription activation domain (WT prey) [human] / Full-length HIV-1 IN fused to the DNA binding domain of Gal4 (WT bait) [HIV-1] (parent complex)
chain 1: SMDSRLQRIHAEIKNSLKIDNLDVNRCIEALDELASLQVTMQQAQKHTEMITTLKKIRRFKVSQVIMEKSTMLYNKFKNMFLV
chain 2: not shown

Variants of B1 are the subject of the first assay. The assay is described as follows: yeast two-hybrid (β-galactosidase reporter); S. cerevisiae Y187; quadruplicate measurements; read off a plot.
On to chain 1 D20N, for which the percent of parent is ~1.2 % of WT/WT.

For chain 1 K55E, chain 1 K56S, chain 1 R59E, the percent of parent is ~1.3 % of WT/WT.

Turning to chain 1 K55E, chain 1 K56E, chain 1 R59E, the percent of parent was ~1.4 % of WT/WT.

Variants of B1 are the subject of another assay. In words: yeast two-hybrid (β-galactosidase reporter); S. cerevisiae Y187; quadruplicate measurements.
In the case of chain 1 K14E, the percent of parent is 139 % of WT/WT.

Regarding chain 1 K46E, the percent of parent was 129 % of WT/WT.

The record behind these values is article PMC2606027 (2009).
